IntAct's records for PubMed 20972459

B1: WW domain-binding protein 2 (Homo sapiens), Q969T9 (parent)
chain: MALNKNHSEGGGVIVNNTESILMSYDHVELTFNDMKNVPEAFKGTKKGTVYLTPYRVIFLSKGKDAMQSFMMPFYLMKDCEIKQPVFGANYIKGTVKAEAGGGWEGSASYKLTFTAGGAIEFGQRMLQVASQASRGEVPSGAYGYSYMPSGAYVYPPPVANGMYPCPPGYPYPPPPPEFYPGPPMMDGAMGYVQPPPPPYPGPMEPPVSGPDVPSTPAAEAKAAEAAASAYYNPGNPHNVYMPTSQPPPPPYYPPEDKKTQ

Variants of: B1
Conditions: with wwtr1_human WWTR1, Q9GZV5
Chain of wwtr1_human WWTR1, Q9GZV5 (Q9GZV5 whole entry): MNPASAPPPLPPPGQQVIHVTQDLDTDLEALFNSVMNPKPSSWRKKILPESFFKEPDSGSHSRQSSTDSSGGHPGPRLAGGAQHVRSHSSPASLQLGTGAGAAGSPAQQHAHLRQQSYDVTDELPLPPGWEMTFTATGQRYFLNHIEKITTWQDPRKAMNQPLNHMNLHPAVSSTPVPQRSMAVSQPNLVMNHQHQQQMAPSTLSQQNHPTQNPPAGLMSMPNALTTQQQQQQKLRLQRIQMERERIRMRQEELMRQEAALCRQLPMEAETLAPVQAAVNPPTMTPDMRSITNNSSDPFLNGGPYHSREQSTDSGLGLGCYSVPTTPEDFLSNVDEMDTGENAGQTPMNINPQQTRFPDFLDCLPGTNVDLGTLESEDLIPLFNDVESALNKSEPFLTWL

| Variant | effect of a mutation on the interaction |
| --- | --- |
| MALNKNHSEGGGVIVNNTESILMSYDHVELTFNDMKNVPEAFKGTKKGTVYLTPYRVIFLSKGKDAMQSFMMPFYLMKDCEIKQPVFGANYIKGTVKAEAGGGWEGSASYKLTFTAGGAIEFGQRMLQVASQASRGEVPSGAYGYSYMPSGAYVYPPPVANGMYPCPPGYPYPPPPPEFYPGPPMMDGAMGYVQPPPPPAPGPMEPPVSGPDVPSTPAAEAKAAEAAASAYYNPGNPHNVYMPTSQPPPPPYYPPEDKKTQ [Y200A] | disrupting interaction |
